In article PMC2768378 one finds Kd and koff data, which are given here for one molecule.

In general, Kd refers to the equilibrium constant for the complex coming apart. High values mean a looser complex, low ones a tighter complex. By koff is commonly meant a measure of how fast the partners let go of each other. Read a low koff as a long-lived complex.

In experiment [1] the target is single chain H2A.Z-H2B (single stranded H2A.Z-H2B protein) (budding yeast). Description: ITC. (In ITC the heat of successive injections is recorded.)
The target is the same in experiment [2]. Kind of experiment: CPMG relaxation dispersion NMR.

B1: Chz.core (residues 71–132 of Chz1) (domain or fragment)
chain: DMDDAKLDALMGNEGEEEEDDLAEIDTSNIITSGRRTRGKVIDYKKTAEELDKKEPSTGSKD
Take B1: the Kd in experiment [1] stood at 100 nM; in experiment [2], 220 nM. For the same molecule, the koff in experiment [2] is 22 s⁻¹.
